From publication PMC5653232 (Cell reports, 2017)

Experiments:
CHD3 PHD1/2 = experiment: Tryptophan fluorescence, linked CHD3 PHD1/2 with histone H3 peptides; assay type: binding; conditions: either peptide; apparent Kds measured by tryptophan fluorescence
H3K9Cme3-NCP = experiment: Fluorescence polarization, CHD3 PHD1/2 with H3K9Cme3-NCP; assay type: binding, human; conditions: read-out: apparent dissociation constant Kd (H3K9Cme3-NCP), 5 nM nucleosomes, 15 mM Tris pH 7.5, 75 mM NaCl, 0.00625% Tween20, 3 mM DTT, three separate experiments
Cy3-Cy5-H3K9Cme3-NCP = experiment: FRET nucleosome unwrapping, Cy3-Cy5-H3K9Cme3-NCP; assay type: biochemical, human

fold stronger binding of linked PHD1/2 than unlinked individual domains (CHD3 PHD1/2): ~10^2 fold | Kd (H3K9Cme3-NCP): 1.4 µM
B1: CHD3 PHD1/2: natively linked tandem PHD fingers of CHD3, construct PHD1/2 (373–508) (protein)
chain: GYETDHQDYCEVCQQGGEIILCDTCPRAYHLVCLDPELDRAPEGKWSCPHCEKEGVQWEAKEEEEEYEEEGEEEGEKEEEDDHMEYCRVCKDGGELLCCDACISSYHIHCLNPPLPDIPNGEWLCPRCTCPVLKGR
modifications: left off: GST, end not stated, cleaved
change in FRET efficiency by CHD3 PHD1/2 without LA (Cy3-Cy5-H3K9Cme3-NCP; CHD3 PHD1/2 up to 300 µM): no measurable change in the FRET efficiency | change in FRET efficiency by CHD3 PHD1/2 with LA (Cy3-Cy5-H3K9Cme3-NCP; LA at a concentration equivalent to the LA S1/2): reduced substantially
